Publication PMC11602130 (Nucleic Acids Research, 2024)

Target: CSA (human, untagged after removal of GST) (human, UniProt Q13216 1-396)
Assay: pull-down

Sequence of CSA (human, untagged after removal of GST) (Q13216 whole entry): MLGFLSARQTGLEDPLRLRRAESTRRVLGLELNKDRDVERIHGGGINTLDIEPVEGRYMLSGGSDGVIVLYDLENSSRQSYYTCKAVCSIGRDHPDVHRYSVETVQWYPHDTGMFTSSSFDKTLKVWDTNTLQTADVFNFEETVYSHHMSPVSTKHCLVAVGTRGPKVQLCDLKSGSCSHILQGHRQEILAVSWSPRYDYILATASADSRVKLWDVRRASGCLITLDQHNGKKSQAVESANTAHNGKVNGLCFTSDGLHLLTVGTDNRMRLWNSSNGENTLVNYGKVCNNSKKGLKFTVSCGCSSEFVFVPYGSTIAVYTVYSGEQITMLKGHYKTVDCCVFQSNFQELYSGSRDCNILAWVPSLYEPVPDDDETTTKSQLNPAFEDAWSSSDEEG

- binding result: binds
B1: His-STK19 (human STK19S, 254aa isoform) (natural protein, UniProt P49842 1-254, looked up)
chain: MSWKRHHLIPETFGVKRRRKRGPVESDPLRGEPGSARAAVSELMQLFPRGLFEDALPPIVLRSQVYSLVPDRTVADRQLKELQEQGEIRIVQLGFDLDAHGIIFTEDYRTRVLKACDGRPYAGAVQKFLASVLPACGDLSFQQDQMTQTFGFRDSEITHLVNAGVLTVRDAGSWWLAVPGAGRFIKYFVKGRQAVLSMVRKAKYRELLLSELLGRRAPVVVRLGLTYHVHDLIGAQLVDCISTTSGTLLRLPET
